This is an account of results in the supplement of paper PMC7877785.

A short description of this data set: self-splicing fitness, log relative to wild type (ln ratio); higher = more splicing; Tetrahymena group I intron in knt gene, E. coli kanamycin selection, DiMSum; sequences stand for … in CUCUCU…GGAGGGAAAAGUUAUCAGGCAUGCACCUGGUAGCUAGUCUUUAAACCAAUAGAUUGCAUCGGUUUAAAAGGCAAGACCGUCAAAUUGCGGGAAAGGGGUCAACAGCCGUUCAGUACCAAGUCUCAGGGGAAACUUUGAGAUGGCCUUGCAAAGGGUAUGGUAAUAAGCUGACGGACAUGGUCCUAACCACGCAGCCAAGUCCUAAGUCAACAGAUCUUCUGUUGAUAUGGAUGCAGUUCACAGACUAAAUGUCGGUCGGGGAAGAUGUAUUCUUCUCAUAAGAUAUAGUCGGACCUCUCCUUAAUGGGAGCUAGCGGAUGAAGUGAUGCAACACUGGAGCCGCUGGGAACUAAUUUGUAUGCGAAAGUAUAUUGAUUAGUUUUGGAGUACUCGUGGUCG
In a few lines: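 A randomised library covering all eight P1ex-region intron nucleotides was built with the intron in the knt kanamycin-resistance gene on pET-22b(+) and held in E. coli BL21(DE3). Cells were grown overnight at 37°C or 30°C on LB agar, with or without 25 μg/mL kanamycin, plus 100 μg/mL carbenicillin, 50 μM IPTG and 0.2% rhamnose, and pooled colonies were amplicon-sequenced on an Illumina HiSeq 2500. DiMSum fitness is the error-weighted combination of wild-type-normalised replicate fold changes, kanamycin versus none.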

± gives the uncertainty stated by the source.

For ACCUAGCAAUAUUACGCAAG, the “self-splicing fitness (ln)” value was -2.73 ± 0.15 (30 °C) and -2.2 ± 0.18 (37 °C).

In the case of CUCGAGCAAUAUUACGCGCU, the “self-splicing fitness (ln)” value by setting is: (30 °C) -3.66 ± 0.22; (37 °C) -2.69 ± 0.23.

UCACAGCAAUAUUACGGGGA: the “self-splicing fitness (ln)” value was -1.15 ± 0.065 (30 °C) and 0.015 ± 0.076 (37 °C).

AAUAAGCAAUAUUACGGUUG: the “self-splicing fitness (ln)” value is, setting by setting: (30 °C) -2.86 ± 0.12; (37 °C) -1.97 ± 0.14.

In the case of CGAAAGCAAUAUUACGAAGG, the “self-splicing fitness (ln)” value is, setting by setting: (30 °C) -1.05 ± 0.11; (37 °C) -1.03 ± 0.16.

For CACGAGCAAUAUUACGCACU, the “self-splicing fitness (ln)” value runs as follows: (30 °C) -2.87 ± 0.39; (37 °C) -1.61 ± 0.23.

On to ACUAAGCAAUAUUACGGAAC, for which the “self-splicing fitness (ln)” value is, setting by setting: (30 °C) -3.33 ± 0.29; (37 °C) -2.77 ± 0.32.

GCCUAGCAAUAUUACGGGGA: the “self-splicing fitness (ln)” value by setting is: (30 °C) -0.34 ± 0.067; (37 °C) -0.0121 ± 0.09.

As for GUGCAGCAAUAUUACGGGAA, the “self-splicing fitness (ln)” value runs as follows: (30 °C) -3.67 ± 0.25; (37 °C) -1.9 ± 0.13.

CUCCAGCAAUAUUACGGCCG: the “self-splicing fitness (ln)” value is, setting by setting: (30 °C) -1.3 ± 0.1; (37 °C) -0.777 ± 0.14.

On to GCGCAGCAAUAUUACGCCAG, for which the “self-splicing fitness (ln)” value by setting is: (30 °C) -2.22 ± 0.26; (37 °C) -2.28 ± 0.47.

Turning to GGCGAGCAAUAUUACGUAGU, the “self-splicing fitness (ln)” value (30 °C) was -1.57 ± 0.13 and the “self-splicing fitness (ln)” value (37 °C) is -0.422 ± 0.14.

Take GCCUAGCAAUAUUACGUCAC: the “self-splicing fitness (ln)” value is -3.49 ± 0.24 (30 °C) and -2.04 ± 0.22 (37 °C).

As to UCCAAGCAAUAUUACGUUGA, the “self-splicing fitness (ln)” value is, setting by setting: (30 °C) -0.725 ± 0.061; (37 °C) -0.109 ± 0.073.

Turning to ACCGAGCAAUAUUACGGGGC, the “self-splicing fitness (ln)” value is, setting by setting: (30 °C) -3.64 ± 0.2; (37 °C) -2.47 ± 0.2.

Regarding AUUAAGCAAUAUUACGAUAG, the “self-splicing fitness (ln)” value (30 °C) was -3.89 ± 0.37 and the “self-splicing fitness (ln)” value (37 °C) is -2.55 ± 0.31.

As to UCGAAGCAAUAUUACGUAGC, the “self-splicing fitness (ln)” value (37 °C) was -2.17 ± 0.31.

Consider GCAGAGCAAUAUUACGGUUU, for which the “self-splicing fitness (ln)” value by setting is: (30 °C) -2.82 ± 0.17; (37 °C) -2.08 ± 0.15.

With UUCGAGCAAUAUUACGUGUA, the “self-splicing fitness (ln)” value is -2.65 ± 0.09 (30 °C) and -1.86 ± 0.095 (37 °C).

With GAGCAGCAAUAUUACGGUAU, the “self-splicing fitness (ln)” value runs as follows: (30 °C) -2.9 ± 0.11; (37 °C) -1.34 ± 0.1.

Take AUAUAGCAAUAUUACGCGAA: for the setting “37 °C”, the “self-splicing fitness (ln)” value was -1.32 ± 0.23.

Take ACCUAGCAAUAUUACGAACC: the “self-splicing fitness (ln)” value reads like this: (30 °C) -1.67 ± 0.16; (37 °C) -1.07 ± 0.19.

As for GUACAGCAAUAUUACGUUGU, the “self-splicing fitness (ln)” value (30 °C) was -3.27 ± 0.15 and the “self-splicing fitness (ln)” value (37 °C) is -1.99 ± 0.15.

In the case of CGGGAGCAAUAUUACGGUGU, the “self-splicing fitness (ln)” value (30 °C) was -3.71 ± 0.24 and the “self-splicing fitness (ln)” value (37 °C) is -2.48 ± 0.25.

As to UCCCAGCAAUAUUACGUGUU, the “self-splicing fitness (ln)” value was -3.33 ± 0.12 (30 °C) and -2.19 ± 0.11 (37 °C).

Consider UUGCAGCAAUAUUACGAUCA, for which the “self-splicing fitness (ln)” value (30 °C) was -1.37 ± 0.12 and the “self-splicing fitness (ln)” value (37 °C) is -0.0311 ± 0.11.

CGUUAGCAAUAUUACGGACC: the “self-splicing fitness (ln)” value (30 °C) was -0.382 ± 0.14 and the “self-splicing fitness (ln)” value (37 °C) worked out at 0.675 ± 0.16.

As to GGUCAGCAAUAUUACGAGUG, the “self-splicing fitness (ln)” value runs as follows: (30 °C) -2.56 ± 0.1; (37 °C) -1.44 ± 0.11.

On to GCGCAGCAAUAUUACGCGAG, for which the “self-splicing fitness (ln)” value reads like this: (30 °C) -1.66 ± 0.08; (37 °C) -0.987 ± 0.089.

For the sequence UUAAAGCAAUAUUACGCUCA, the “self-splicing fitness (ln)” value worked out at 0.0308 ± 0.097 (30 °C) and 0.489 ± 0.14 (37 °C).

As for GCUAAGCAAUAUUACGCAUC, the “self-splicing fitness (ln)” value (30 °C) is -0.687 ± 0.13 and the “self-splicing fitness (ln)” value (37 °C) is -1.06 ± 0.21.

Regarding AGCGAGCAAUAUUACGGGCU, the “self-splicing fitness (ln)” value (37 °C) is -1.59 ± 0.24.

Take GUAAAGCAAUAUUACGUGGG: the “self-splicing fitness (ln)” value is -3.28 ± 0.18 (30 °C) and -2.91 ± 0.14 (37 °C).

As to UGCAAGCAAUAUUACGCGCG, the “self-splicing fitness (ln)” value runs as follows: (30 °C) -1.84 ± 0.13; (37 °C) -0.733 ± 0.17.

On to GCACAGCAAUAUUACGACUC, for which the “self-splicing fitness (ln)” value (30 °C) was -0.289 ± 0.067 and the “self-splicing fitness (ln)” value (37 °C) was 0.76 ± 0.083.

With AUGGAGCAAUAUUACGAGGU, the “self-splicing fitness (ln)” value (30 °C) was -2.74 ± 0.2 and the “self-splicing fitness (ln)” value (37 °C) was -3.38 ± 0.31.

Take GAAAAGCAAUAUUACGAACC: the “self-splicing fitness (ln)” value is, setting by setting: (30 °C) -0.664 ± 0.14; (37 °C) -0.705 ± 0.18.

Regarding AACGAGCAAUAUUACGGCGG, the “self-splicing fitness (ln)” value runs as follows: (30 °C) -2.67 ± 0.14; (37 °C) -1.13 ± 0.13.
